In one data set the target is T1, NucV (Streptomyces calvus, UniProt A0A142C6V8).
T1 construct: gene apt; N-terminal 6-His tag kept; expressed in E. coli BL21(DE3)
Kind of data set: HPLC of AMP formation, Michaelis-Menten fit. Type of data set: biochemical. Conditions: 10 mM MgCl2, 50 mM Tris-HCl, 150 mM NaCl, pH 7.5, room temperature, apparent. The source says: HPLC of AMP formation, Michaelis-Menten fit on NucV

For the next data set, the target named is T2, ScAPRT (Streptomyces calvus, UniProt A0A514K045).
T2 construct: gene apt; N-terminal 6-His tag kept; expressed in E. coli BL21(DE3); housekeeping APRT, not NucV
Kind of data set: HPLC of AMP formation, Michaelis-Menten fit. The class given is biochemical. The following applies: 10 mM MgCl2, 50 mM Tris-HCl, 150 mM NaCl, pH 7.5, room temperature, apparent. An excerpt: HPLC of AMP formation, Michaelis-Menten fit on ScAPRT

Data set [1] has as its system T3, CSC[C@H]1O[C@@H](n2cnc3c(N)ncnc32)[C@H](O)[C@@H]1O.
T3 construct: expressed in E. coli SHuffle T7 Express lysY; amylose then Ni-NTA
Kind of data set: purified protein. The class given is biochemical, Streptomyces calvus. Conditions: 10 mM phosphate, 50 mM Tris-HCl, 150 mM NaCl, pH 7.5, room temperature, apparent. An excerpt:
(§1) HPLC of adenine formation, Michaelis-Menten fit on MBP-NucPNP

In data set [2] the test system is T4, Nc1ncnc2c1ncn2[C@@H]1O[C@H](CO)[C@@H](O)[C@H]1O.
T4 construct: expressed in E. coli SHuffle T7 Express lysY; amylose then Ni-NTA
Kind of data set: purified protein. The class given is biochemical, Streptomyces calvus. The following applies: 10 mM phosphate, 50 mM Tris-HCl, 150 mM NaCl, pH 7.5, room temperature, apparent.
Excerpt: as §1

Substrate in the data set “purified protein”: Nc1ncnc2nc[nH]c12
Kind of data set: purified protein. Conditions: 500 μM PRPP, 10 mM MgCl2, 50 mM Tris-HCl, 150 mM NaCl, pH 7.5, room temperature, apparent.

Substrate in data set [3]: O=P(O)(O)OC[C@H]1O[C@H](OP(=O)(O)OP(=O)(O)O)[C@H](O)[C@@H]1O
Kind of data set: HPLC of AMP formation, Michaelis-Menten fit. Type of data set: biochemical, Escherichia coli. Conditions: 500 μM adenine, 10 mM MgCl2, 50 mM Tris-HCl, 150 mM NaCl, pH 7.5, room temperature, apparent.

Experimental findings from PMC8694150, “Characterization of NucPNP and NucV involved in the early steps of nucleocidin biosynthesis in Streptomyces calvus” (RSC Advances, 2021) are described below.

T2 sequence (A0A514K045 entry or part of it): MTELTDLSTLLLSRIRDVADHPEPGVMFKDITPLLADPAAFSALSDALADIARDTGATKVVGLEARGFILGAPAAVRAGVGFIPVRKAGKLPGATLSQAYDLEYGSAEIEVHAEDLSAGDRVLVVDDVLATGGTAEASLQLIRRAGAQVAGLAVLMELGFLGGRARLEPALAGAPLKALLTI
T1 sequence (A0A142C6V8 entry or part of it): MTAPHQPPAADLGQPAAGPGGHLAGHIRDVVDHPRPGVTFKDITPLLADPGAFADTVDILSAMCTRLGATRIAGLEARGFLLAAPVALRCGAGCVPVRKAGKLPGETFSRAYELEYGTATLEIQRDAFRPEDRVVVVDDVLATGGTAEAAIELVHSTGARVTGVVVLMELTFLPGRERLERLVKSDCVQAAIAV

`Nc1ncnc2nc[nH]c12` [compound 3, adenine]: the Km came out at 6.8 ± 1.4 µM at NucV (500 μM PRPP) and 2.8 ± 0.6 µM at ScAPRT (500 μM PRPP).
Take MBP-NucPNP (Streptomyces calvus): in data set [1], the Km came out at 43.5 ± 4.1 µM, the turnover number (kcat) is 0.15 ± 0.01 s⁻¹ and the kcat/Km came to 3400 M⁻¹ s⁻¹. In data set [2], the Km was 90.3 ± 8.2 µM, the kcat was 0.49 ± 0.02 s⁻¹ and the specificity constant (kcat/Km) worked out at 5500 M⁻¹ s⁻¹.
Consider `O=P(O)(O)OC[C@H]1O[C@H](OP(=O)(O)OP(=O)(O)O)[C@H](O)[C@@H]1O` [compound 5, 5-phospho-α-D-ribose-1-diphosphate], for which the results for the Km on NucV (500 μM adenine) and on ScAPRT (500 μM adenine) were 21.4 ± 3 µM and 9.8 ± 2 µM, respectively.

B1: EcAPRT (Escherichia coli K-12) (protein)
chain: MTATAQQLEYLKNSIKSIQDYPKPGILFRDVTSLLEDPKAYALSIDLLVERYKNAGITKVVGTEARGFLFGAPVALGLGVGFVPVRKPGKLPRETISETYDLEYGTDQLEIHVDAIKPGDKVLVVDDLLATGGTIEATVKLIRRLGGEVADAAFIINLFDLGGEQRLEKQGITSYSLVPFPGH
notes: N-terminal 6-His tag kept; expressed in E. coli BL21(DE3)
Take B1: in “purified protein”, the Michaelis constant (Km) stood at 9.6 ± 2.5 µM and the kcat turned out to be 27.3 ± 1.9 s⁻¹. Moreover, in data set [3], the Michaelis-Menten constant (Km) is reported as 46.4 ± 9.0 µM and the kcat came to 15.9 ± 1.3 s⁻¹.
